Substitutions are numbered along the chain they refer to. Each block holds one binder with its values, some of them ahead of it.
Columns and labels:
Human ST2-fc (human) = Human ST2-fc (human) (UniProt Q01638); test: competition ELISA, coated ST2-fc, competitor IL33-his
[1] = target: T1, ST2 on the effector cells (KU812, KU812/NF-κB-1#, HUVEC, HMC-1) (human, UniProt Q01638 19-556); test: cell-based or functional assay
T1 sequence (looked up): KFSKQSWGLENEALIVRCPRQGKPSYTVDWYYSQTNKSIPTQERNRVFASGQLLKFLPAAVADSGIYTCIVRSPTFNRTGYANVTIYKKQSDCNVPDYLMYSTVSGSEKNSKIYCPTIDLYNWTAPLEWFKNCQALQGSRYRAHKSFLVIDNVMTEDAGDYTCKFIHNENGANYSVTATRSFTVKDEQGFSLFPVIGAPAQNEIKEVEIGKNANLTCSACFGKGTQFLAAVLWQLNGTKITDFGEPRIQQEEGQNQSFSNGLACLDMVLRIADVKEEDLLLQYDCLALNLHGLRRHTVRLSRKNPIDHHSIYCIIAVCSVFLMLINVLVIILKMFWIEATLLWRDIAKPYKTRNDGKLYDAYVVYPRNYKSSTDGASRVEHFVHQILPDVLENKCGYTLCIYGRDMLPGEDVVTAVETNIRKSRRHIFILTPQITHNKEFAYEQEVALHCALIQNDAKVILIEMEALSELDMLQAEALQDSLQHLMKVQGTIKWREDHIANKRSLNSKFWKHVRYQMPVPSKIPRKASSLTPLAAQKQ

Human ST2-his = target: T2, Human ST2-his (human, UniProt Q01638-2 19-328, limits assumed); test: SPR Biacore X100, antibody captured on protein A chip, human ST2-his injected, pH 7.4
T2 construct: Expressed in CHO-K1; The printed range starts at Met1; also called human ST2 fused with a 6-histidine tag at the C-terminus
T2 sequence: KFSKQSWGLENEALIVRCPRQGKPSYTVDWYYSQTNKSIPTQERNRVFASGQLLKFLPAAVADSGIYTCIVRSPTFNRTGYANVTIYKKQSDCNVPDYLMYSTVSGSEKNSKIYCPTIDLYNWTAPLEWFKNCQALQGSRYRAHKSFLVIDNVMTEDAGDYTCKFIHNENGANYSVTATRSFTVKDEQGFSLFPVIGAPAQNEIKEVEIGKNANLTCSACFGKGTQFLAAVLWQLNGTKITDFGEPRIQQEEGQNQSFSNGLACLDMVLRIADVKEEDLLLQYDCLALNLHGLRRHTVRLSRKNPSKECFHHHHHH
Protocol: The experiment on the interaction between the anti-human ST2 antibodies and human ST2-his was performed using Biacore X100.
Each anti-human ST2 antibody was diluted to 2 µg/mL and captured on the surface of a protein A chip for a capture time of 60 s. Following the antibody capture, a solution of human ST2-his (2-fold gradient dilution from a starting concentration of 20 nM, to obtain 6 concentrations in total) was injected. Association was monitored for 180 s and dissociation was monitored for 700 s, and the sensor surface was regenerated by injecting a solution of glycine at pH 2.0. Kinetic data were analyzed using a simple 1:1 binding model.

[2] = target: T1, ST2 on the effector cells (KU812, …); test: cell-based or functional assay; remark: listed apart in the source

B1: 5887-537-H1L0 (antibody, human IgG4 S228P, kappa, V domains shown)
VH: QVTLKESGPTLVKPTQTLTLTCTFSGFSLSTSGMGVGWIRQPPGKALEWLAHIWWDDVKQYNPALKSRLTITKDTSKSQVVLTMTNMDPVDTATYYCARIGGDYDYFDFWGQGTTVTVSS
VL: DIVLTQSPASLAVSPGQRATITCRASESVEYSGTSLMQWYQQKPGQPPKLLIYVASNVESGVPARFSGSGSGTDFTLTINPVEANDTANYYCQQSRKVPWTFGQGTKLEIKR
IC50 (Human ST2-fc (human)): 0.0882 µg/mL
Maximum inhibition rate (Human ST2-fc (human)): 88.3%
Relative activity compared with CNTO7160 (Human ST2-fc (human)): 1210%

B5: 5887-41-H1L1 (antibody, human IgG4 S228P, kappa, V domains shown)
VH: QVQLQESGPGLVKPSQTLSLTCTVSGYSITSDYAWDWIRQPPGKGLEWIGYIRYSGDTYYNPSLKSRVTISRDTSKNQFSLKLSSVTAADTAVYYCATTMMDTMDYWGQGTLVTVSS
VL: DIVLTQSPASLAVSPGQRATITCRASKSVSTSGNSYMHWYQQKPGQPPKLLIYLASNLESGVPARFSGSGSGTDFTLTINPVEANDAANYYCQHSREFPLTFGQGTKLEIKR
IC50 (Human ST2-fc (human)): 2.23 µg/mL
Maximum inhibition rate (Human ST2-fc (human)): 92.4%
Relative activity compared with CNTO7160 (Human ST2-fc (human)): 56.2%

B7: 5888-153-H0L2 (antibody, human IgG4 S228P, kappa, V domains shown)
VH: QVQLVQSGAEVKKPGASVKVSCKASGYTFTDYELHWVRQAPGQGLEWMGTIDPETGDTVYNQKFKARVTMTRDTSTSTVYMELSSLRSEDTAVYYCARAFYNDYDDGFAYWGQGTLVTVSS
VL: EIVMTQSPATLSLSPGERATLSCSVSSSVSYMHWYQQKPGQAPRRLIYDTSKLASGIPARFSGSGSGTDYTLTISSLEPEDAAVYYCQQWNTSPLTFGGGTKVEIKR
IC50 (Human ST2-fc (human)): 0.474 µg/mL
Maximum inhibition rate (Human ST2-fc (human)): 93.5%
Relative activity compared with CNTO7160 (Human ST2-fc (human)): 240%

B8: 5888-116-H1L1 (antibody, human IgG4 S228P, kappa, V domains shown)
VH: QVQLVQSGAEVKKPGASVKVSCKASGYTFTDSEMYWVRQAPGQGLEWMGAIDPETGDTAFNQKFKGRVTMTADKSTSTAYMELSSLRSEDTAVYYCTRAFDNDNDDGFAYWGQGTMVTVSS
VL: DIQMTQSPSSLSASVGDRVTITCSASSSVNYMHWYQQKPGKAPKRLIYDTSKLASGVPSRFSGSGSGTDYTFTISSLQPEDAATYYCQQWSSNPLTFGQGTKLEIKR
IC50 (Human ST2-fc (human)): 0.486 µg/mL
Maximum inhibition rate (Human ST2-fc (human)): 94.9%
Relative activity compared with CNTO7160 (Human ST2-fc (human)): 219%

B10: 5888-153-H1L1 (antibody, human IgG4 S228P, kappa, V domains shown)
VH: B7 VH with R72A, T74K, V79A, A97T
VL: B7 VL with T92S
IC50, inhibition of activation of KU812-NF-κB reporter gene by IL33 [2]: 0.0124 µg/mL
Maximum inhibition rate, KU812-NF-κB reporter gene [2]: 91.4%
Relative activity compared with CNTO7160, KU812-NF-κB reporter gene [2]: 1620%
IC50 (Human ST2-fc (human)): 0.624 µg/mL
Maximum inhibition rate (Human ST2-fc (human)): 93.8%
Relative activity compared with CNTO7160 (Human ST2-fc (human)): 183%

B13: 5888-153-H1L2 (antibody, human IgG4 S228P, kappa, V domains shown)
VH: B7 VH with R72A, T74K, V79A, A97T
VL: B7 VL
IC50, inhibition of activation of KU812-NF-κB reporter gene by IL33 [2]: 0.0441 µg/mL
Maximum inhibition rate, KU812-NF-κB reporter gene [2]: 85%
Relative activity compared with CNTO7160, KU812-NF-κB reporter gene [2]: 454%
IC50 (Human ST2-fc (human)): 0.852 µg/mL
Maximum inhibition rate (Human ST2-fc (human)): 94%
Relative activity compared with CNTO7160 (Human ST2-fc (human)): 134%

Other lines, results leading:

IC50 (Human ST2-fc (human)): 0.488 µg/mL
Maximum inhibition rate (Human ST2-fc (human)): 90.5%
Relative activity compared with CNTO7160 (Human ST2-fc (human)): 180%
B2: 5888-379-H0L0 (antibody, human IgG4 S228P, kappa, V domains shown)
VH: QVQLVQSGAEVKKPGASVKVSCKASGYTFINYGMNWVRQAPGQRLEWMGWINTYIGEPTYGDNFKGRVTITRDTSASTAYMELSSLRSEDTAVYYCAREGDGFAYWGQGTLVTVSS
VL: DIQMTQSPSSLSASVGDRVTITCKSSQSLLYSGNQNNYLAWYQQKPGKVPKLLIYGASTRESGVPSRFSGSGSGTDFTLTISSLQPEDVATYYCQNDHSYPYTFGGGTKVEIKR

IC50 (Human ST2-fc (human)): 0.317 µg/mL
Maximum inhibition rate (Human ST2-fc (human)): 89.5%
Relative activity compared with CNTO7160 (Human ST2-fc (human)): 276%
B3: 5888-379-H1L1 (antibody, human IgG4 S228P, kappa, V domains shown)
VH: B2 VH with D101E
VL: B2 VL with V89L

IC50, inhibition of KU812-IL5 production promoted by IL-33 (human IL33-his) [1]: 0.0289 µg/mL
Maximum inhibition rate, KU812-IL5 production by IL-33 [1]: 95%
Relative activity compared with CNTO7160, KU812-IL5 production by IL-33 [1]: 222%
Kd (Human ST2-his): 0.261 nM
koff (Human ST2-his): 0.000377 s⁻¹
kon (Human ST2-his): 1.45e+06 M⁻¹ s⁻¹
IC50 (Human ST2-fc (human)): 1 µg/mL
Maximum inhibition rate (Human ST2-fc (human)): 88%
Relative activity compared with CNTO7160 (Human ST2-fc (human)): 125%
B4: 5886-156-H1L1 (antibody, human IgG4 S228P, kappa, V domains shown)
VH: B5 VH with D36N, R53D, D57S, Y59T, T98S, M100V, M101I, T103S
VL: B5 VL with N34H, L100F, L108V
notes: Humanized antibody

IC50 (Human ST2-fc (human)): 2.57 µg/mL
Maximum inhibition rate (Human ST2-fc (human)): 92.9%
Relative activity compared with CNTO7160 (Human ST2-fc (human)): 44.3%
B6: 5888-153-H0L0 (antibody, human IgG4 S228P, kappa, V domains shown)
VH: B7 VH
VL: B7 VL with M4L, R45L, Y70F, A82F, T92S

IC50 (Human ST2-fc (human)): 0.611 µg/mL
Maximum inhibition rate (Human ST2-fc (human)): 90.7%
Relative activity compared with CNTO7160 (Human ST2-fc (human)): 187%
B9: 5888-116-H3L1 (antibody, human IgG4 S228P, kappa, V domains shown)
VH: B8 VH with G107A
VL: B8 VL

IC50 (Human ST2-fc (human)): 1.32 µg/mL
Maximum inhibition rate (Human ST2-fc (human)): 92.5%
Relative activity compared with CNTO7160 (Human ST2-fc (human)): 86.2%
B11: 5888-153-H1L0 (antibody, human IgG4 S228P, kappa, V domains shown)
VH: B7 VH with R72A, T74K, V79A, A97T
VL: B7 VL with M4L, R45L, Y70F, A82F, T92S

IC50 (Human ST2-fc (human)): 0.49 µg/mL
Maximum inhibition rate (Human ST2-fc (human)): 93.2%
Relative activity compared with CNTO7160 (Human ST2-fc (human)): 257%
B12: 5888-357-H1L1 (antibody, human IgG4 S228P, kappa, V domains shown)
VH: B8 VH with T28R, Y35H, A50T, D57G, A59V, F60Y, K74R, A79V, D101Y, N104F
VL: B7 VL with V25A, S27T, N91S, T92S, S93N

From US12624112 (MABWELL SHANGHAI BIOSCIENCE, dated 2026)
